This passage reports Ki results from patent publication US20200338203A1 (Bicycle, published 2020).

Numbered stars: 1 amine (or outer) side, 2 acyl side, 3 side chain; on linkers, the order of the positions; unused ones are H or OH. Bridge positions count the residues as written; N and C are the ends. Square brackets hold non-standard residues; d marks the D form. Ends that are not written are not given here. ThiAz = 3-(1,2,4-triazol-1-yl)-alanine, O=C([C@H](Cn1cncn1)N[*:1])[*:2]; Ala(2-furyl) = N[C@@H](Cc1ccco1)C(=O)O; 1Nal = N[C@@H](Cc1cccc2ccccc12)C(=O)O; TBMB = c1c(C[*:1])cc(C[*:3])cc1C[*:2]; hArg = N=C(N)NCCCC[C@H](N)C(=O)O; Tle = CC(C)(C)[C@H](N)C(=O)O; Pip = O=C(O)[C@@H]1CCCCN1; Aze = O=C(O)[C@@H]1CCN1; Aib = CC(C)(N)C(=O)O; azaGly = NNC(=O)O; βAla = NCCC(=O)O; Sar = CNCC(=O)O

T1 sequence (P29317 24-537): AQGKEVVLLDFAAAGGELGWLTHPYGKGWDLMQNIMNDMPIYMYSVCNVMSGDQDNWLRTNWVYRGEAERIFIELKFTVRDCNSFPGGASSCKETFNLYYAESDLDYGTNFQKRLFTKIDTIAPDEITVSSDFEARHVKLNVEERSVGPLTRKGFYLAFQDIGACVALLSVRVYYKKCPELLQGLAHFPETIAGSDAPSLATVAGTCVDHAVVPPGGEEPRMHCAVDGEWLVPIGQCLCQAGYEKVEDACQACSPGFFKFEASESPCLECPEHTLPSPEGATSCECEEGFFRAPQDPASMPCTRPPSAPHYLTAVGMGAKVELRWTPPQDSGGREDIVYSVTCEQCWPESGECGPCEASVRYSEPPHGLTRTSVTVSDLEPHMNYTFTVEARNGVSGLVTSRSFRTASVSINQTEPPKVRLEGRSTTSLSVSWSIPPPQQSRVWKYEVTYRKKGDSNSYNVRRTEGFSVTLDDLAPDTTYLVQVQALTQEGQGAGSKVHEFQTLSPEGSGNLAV

The assay addresses T1, Human EphA2 (Ecto) (Human, UniProt P29317 24-537).
T1 construct: extracellular domain
Briefly: FP competition; competitor Compound 18. The procedure: Peptides without a fluorescent tag were tested in competition with a peptide with a fluorescent tag and a known Kd (Table 2). Peptides were diluted to an appropriate concentration in assay buffer as described in the direct binding assay with a maximum of 5% DMSO, then serially diluted 1 in 2. Five μL of diluted peptide was added to the plate followed by 10 μL of human or mouse EphA2 (Table 1) at a fixed concentration which was dependent on the fluorescent peptide used (Table 2), then 10 μL fluorescent peptide added. Measurements were conducted as for the direct binding assay, however the gain was determined prior to the first measurement.
Broadly, the Ki is the dissociation constant of the complex between target and ligand, obtained from inhibition or displacement. With Ac-[Sar][Sar]AH[dD]VPCPWGPFWCPVNRPGC (linker 8-15-22 via TBMB) [Compound 210], the inhibition constant Ki worked out at 1.1 nM.

Turning to Ac-[Sar][Sar]A[dH]DVPCP[1Nal]GPFWCP[Tle]N[hArg]PGC (linker 8-15-22 via TBMB) [Compound 230], the inhibitory constant (Ki) was 1.8 nM.

For Ac-[Sar][Sar]AH[dD]VPCP[1Nal]GPFWCP[Tle]N[hArg]PGC (linker 8-15-22 via TBMB) [Compound 227], the Ki was 0.75 nM.

Take [Sar][Sar]AHDV[Aze]CPWGPFWCPVNRPGC (linker 8-15-22 via TBMB) [Compound 221]: the Ki came to 3.1 nM.

With [βAla][Sar][Sar][Sar][Sar][Sar][Sar][Sar][Sar][Sar][Sar]HDVPCPWGPFWCPVNRPGC (linker 16-23-30 via TBMB) [Compound 223], the Ki was found to be 1.29 nM.

For the molecule [Sar][Sar]AHD[dA]PCPWGPFWCPVNRPGC (linker 8-15-22 via TBMB) [Compound 215], the inhibition constant (Ki) came to 26 nM.

Consider Ac-[Sar][Sar]AH[dD]V[Sar]CPWGPFWCPVNRPGC (linker 8-15-22 via TBMB) [Compound 212], for which the Ki came to 4.95 nM.

Turning to Ac-[Sar][Sar]A[dH]DVCPWGPFWCPVNRPGC (linker 7-14-21 via TBMB) [Compound 198], the Ki turned out to be 20 nM.

As for [Sar][Sar]AHD[Aib]PCPWGPFWCPVNRPGC (linker 8-15-22 via TBMB) [Compound 216], the inhibition constant Ki is 2.77 nM.

As for [Sar][Sar]AHDV[Pip]CPWGPFWCPVNRPGC (linker 8-15-22 via TBMB) [Compound 222], the inhibition constant Ki is 3.4 nM.

For the molecule [Sar][Sar]AH[dD]VPCPWGPFWCPVNRPGC (linker 8-15-22 via TBMB) [Compound 209], the inhibition constant Ki was 1.25 nM.

For the molecule [Sar][Sar]AH[dA]VPCPWGPFWCPVNRPGC (linker 8-15-22 via TBMB) [Compound 206], the Ki stood at 8.3 nM.

Take Ac-[Sar][Sar]A[dH]DVPCPWGPFWCP[hArg]NRPGC (linker 8-15-22 via TBMB) [Compound 229]: the Ki came out at 5.1 nM.

Consider Ac-[Sar][Sar]H[dD]VPCPWG[Aib]F[1Nal]CPVNR[Aib]GC (linker 7-14-21 via TBMB) [Compound 268], for which the Ki is 1.24 nM.

For the molecule [Sar][Sar]AHD[Tle]PCPWGPFWCPVNRPGC (linker 8-15-22 via TBMB) [Compound 217], the inhibitory constant (Ki) is 0.49 nM.

As to Ac-[Sar][Sar]A[dH]D[Tle]PCPWGPFWCPVNRPGC (linker 8-15-22 via TBMB) [Compound 204], the Ki was 2.15 nM.

Consider [Sar][Sar]AHDV[Aib]CPWGPFWCPVNRPGC (linker 8-15-22 via TBMB) [Compound 220], for which the Ki is 0.83 nM.

For [βAla][Sar][Sar][Sar][Sar][Sar][Sar][Sar][Sar][Sar][Sar]H[dD]VPCP[1Nal]G[Aib]F[1Nal]CP[Tle]NRPGC (linker 16-23-30 via TBMB) [Compound 252], the Ki worked out at 0.37 nM.

For Ac-[Sar][Sar]H[dD]VPCP[1Nal]G[Aib]FWCPVNR[Aib]GC (linker 7-14-21 via TBMB) [Compound 266], the inhibitory constant (Ki) came to 1.6 nM.

For the molecule [Sar][Sar]A[dA]DVPCPWGPFWCPVNRPGC (linker 8-15-22 via TBMB) [Compound 199], the Ki was found to be 3.35 nM.

With Ac-[Sar][Sar][dH]DVPCPWGPFWCPVNRPGC (linker 7-14-21 via TBMB) [Compound 224], the inhibition constant Ki came to 1.09 nM.

Take Ac-[Sar][Sar]H[dD]VPCPW[azaGly]PFWCPVNRPGC (linker 7-14-21 via TBMB) [Compound 267]: the inhibition constant (Ki) was determined as 0.66 nM.

As to Ac-[Sar][Sar]AH[dD]V[Aib]CPWGPFWCPVNRPGC (linker 8-15-22 via TBMB) [Compound 213], the inhibition constant Ki worked out at 1.9 nM.

Consider Ac-[Sar][Sar]AH[dD][Tle]PCPWGPFWCPVNRPGC (linker 8-15-22 via TBMB) [Compound 211], for which the Ki was 3.1 nM.

Regarding Ac-[Sar][Sar]A[dD]DVPCPWGPFWCPVNRPGC (linker 8-15-22 via TBMB) [Compound 200], the Ki came to 4.1 nM.

Consider [Sar][Sar]AH[dE]VPCPWGPFWCPVNRPGC (linker 8-15-22 via TBMB) [Compound 208], for which the inhibitory constant (Ki) stood at 2 nM.

As for [Sar][Sar]A[ThiAz]DVPCPWGPFWCPVNRPGC (linker 8-15-22 via TBMB) [Compound 202], the inhibitory constant (Ki) is 0.7 nM.

With [Sar][Sar]AHDV[dA]CPWGPFWCPVNRPGC (linker 8-15-22 via TBMB) [Compound 219], the inhibition constant Ki came to 15 nM.

For [Sar][Sar]A[Ala(2-furyl)]DVPCPWGPFWCPVNRPGC (linker 8-15-22 via TBMB) [Compound 203], the inhibitory constant (Ki) was determined as 0.49 nM.

With Ac-[Sar][Sar]H[dD]VPCP[1Nal]G[Aib]F[1Nal]CPVNR[Aib]GC (linker 7-14-21 via TBMB) [Compound 261], the Ki was 0.63 nM.

Take Ac-[Sar][Sar]A[dH]DVPCPWG[Aib]FWCP[Tle]NR[Aib]GC (linker 8-15-22 via TBMB) [Compound 233]: the Ki stood at 4.8 nM.

Regarding [βAla][Sar][Sar][Sar][Sar][Sar][Sar][Sar][Sar][Sar][Sar]H[dD]VPCPWGPFWCPVNRPGC (linker 16-23-30 via TBMB) [Compound 226], the inhibition constant (Ki) amounted to 0.84 nM.
